# Assay results taken from paper PMC6555648 (Molecular cell, 2019).
# Where no end group is shown, it is not given here.
# T1: mouse REC114 residues 1–158 (REC114N) (mouse, UniProt Q9CWH4 1-158, selenomethionine derivative (in the crystals))
# T1 sequence (looked up): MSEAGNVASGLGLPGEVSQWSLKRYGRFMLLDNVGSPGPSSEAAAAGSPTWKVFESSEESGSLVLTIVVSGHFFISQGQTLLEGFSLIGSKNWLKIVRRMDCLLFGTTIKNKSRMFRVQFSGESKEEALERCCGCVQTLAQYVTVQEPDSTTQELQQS
# Experiments:
# [1] = molecular target: T1, mouse REC114 residues 1–158 (REC114N); assay: crystal structure
# [2] = molecular target: T1, mouse REC114 residues 1–158 (REC114N); assay: pull-down
binding result [1],binding result [2],Binder
binds,,"SRESMQTIPHYLQIKEILQISKQELLPCHVMEQHWKFYVGRSHSEALLSW (domain or fragment, UniProt A0A140LI88 1808-1857, looked up, also: selenomethionine derivative) [mouse ANKRD31 residues 1808–1857 (ANKRD31C)]"
,binds,"SRESMQTIPHYLQIKEILQISKQELLPCHVMEQHWKFYVGRSHSEALLSW (domain or fragment, mouse, UniProt A0A140LI88 1808-1857, looked up) [GST-tagged ANKRD31C]"
